This passage reports Kd results from US10766960 (dated 2020).

Positions count from the first letter of the chain named. Like-named read-outs stand apart in the source and are kept apart here.

Common to all, as to experiment: SPR
Background: Surface plasmon resonance follows binding to a sensor surface in real time, without labels.

In test [1] the target is T1, FcgRIIIa F (human, UniProt P08637).
The target of test [2] is T2, FcgRIIa H (human, UniProt P12318).
T2 chain: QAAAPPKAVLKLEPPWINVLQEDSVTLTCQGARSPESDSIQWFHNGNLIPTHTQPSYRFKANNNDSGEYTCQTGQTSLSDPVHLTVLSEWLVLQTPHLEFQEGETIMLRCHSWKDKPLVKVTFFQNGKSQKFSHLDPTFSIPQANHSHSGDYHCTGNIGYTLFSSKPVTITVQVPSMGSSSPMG

For test [3], the target named is T3, FcgRIIb (human, UniProt P31994).
T3 chain: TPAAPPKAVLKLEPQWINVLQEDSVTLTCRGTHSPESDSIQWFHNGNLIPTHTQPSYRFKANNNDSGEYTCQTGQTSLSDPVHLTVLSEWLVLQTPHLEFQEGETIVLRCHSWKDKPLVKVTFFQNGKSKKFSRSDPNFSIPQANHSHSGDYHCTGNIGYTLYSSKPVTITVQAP

Test [4] has as its target T1, FcgRIIIa F. The source holds these as a separate data set.
In test [5] the target is T4, FcgRIIIa V (human, UniProt P08637).
Test [6] concerns the target T5, FcgRIa (human, UniProt P12314).
T5 chain: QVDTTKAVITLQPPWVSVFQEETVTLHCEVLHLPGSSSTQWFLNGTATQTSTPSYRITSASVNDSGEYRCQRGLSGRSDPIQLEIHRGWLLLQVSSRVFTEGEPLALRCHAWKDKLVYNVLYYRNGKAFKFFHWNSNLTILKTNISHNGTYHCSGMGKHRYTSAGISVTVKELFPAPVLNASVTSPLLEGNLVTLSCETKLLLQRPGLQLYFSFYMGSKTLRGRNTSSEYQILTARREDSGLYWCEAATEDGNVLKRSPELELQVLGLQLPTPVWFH

In test [7] the target is T6, FcgRIIa R (human, UniProt P12318).
T6 chain: T2 chain with H134R

Test [8] concerns the target T1, FcgRIIIa F. This is another data set of the same source.
For test [9], the target named is T3, FcgRIIb.
Test [10] concerns the target T2, FcgRIIa H.
Test [11] addresses T6, FcgRIIa R.
For test [12], the target named is T4, FcgRIIIa V. The source holds these as a separate data set.
The target of test [13] is T5, FcgRIa.
Test [14] deals with T3, FcgRIIb.
Test [15] concerns the target T4, FcgRIIIa V. This is another data set of the same source.
Test [16] deals with T5, FcgRIa.
Test [17] has as its target T6, FcgRIIa R.
For test [18], the target named is T3, FcgRIIb.
In test [19] the target is T1, FcgRIIIa F. This is another data set of the same source.
Test [20] concerns the target T2, FcgRIIa H.

T4 sequence (P08637 17-208 F176V): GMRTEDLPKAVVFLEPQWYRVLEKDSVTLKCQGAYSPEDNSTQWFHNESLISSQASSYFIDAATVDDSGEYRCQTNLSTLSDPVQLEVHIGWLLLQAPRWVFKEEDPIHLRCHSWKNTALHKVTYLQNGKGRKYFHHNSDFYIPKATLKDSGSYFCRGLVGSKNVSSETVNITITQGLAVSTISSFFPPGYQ
T1 sequence (P08637 17-208): as the sequence (P08637 17-208 F176V) above, with V160F counted along it

B1: GpH7-A44/GpH7-B3/GpL16-k0 (antibody)
chain 1: QVQLVQSGAEVKKPGASVTVSCKASGYTFTDYEMHWIRQPPGEGLEWIGAIDPKTGDTAYSESFQDRVTLTADKSTSTAYMELSSLTSEDTAVYYCTRFYSYTYWGQGTLVTVSSASTKGPSVFPLAPSSKSTSGGTAALGCLVKDYFPEPVTVSWNSGALTSGVHTFPAVLQSSGLYSLSSVVTVPSSSLGTQTYICNVNHKPSNTKVDKKVEPKSCDKTHTCPPCPAPELLGGPSVFLFPPKPKDTLMISRTPEVTCVVVDVSHEDPEVKFNWYVDGVEVHNAKTKPREEQYNSTYRVVSVLTVLHQDWLNGKEYKCKVSNKALPAPEEKTISKAKGQPREPQVYTLPPSRKELTKNQVSLTCLVKGFYPSDIAVEWESNGQPENNYKTTPPVLDSDGSFFLYSKLTVDKSRWQQGNVFSCSVMHEALHNRYTQKSLSLSP
chain 2: not shown
chain 3: DIVMTQSPLSLPVTPGEPASISCQASESLVHSNRNTYLHWYLQKPGQSPQLLIYKVSNRFSGVPDRFSGSGSGTDFTLKISRVEAEDVGVYYCSQNTHVPPTFGQGTKVEIERTVAAPSVFIFPPSDEQLKSGTASVVCLLNNFYPREAKVQWKVDNALQSGNSQESVTEQDSKDSTYSLSSTLTLSKADYEKHKVYACEVTHQGLSSPVTKSFNRGEC
Regarding B1, in test [1], the Kd – broadly, the free concentration of one partner at which half of the binding sites on the other are occupied at equilibrium, for simple one-to-one binding – worked out at 370 nM.

B2: GpH7-A5/GpH7-B80/GpL16-k0 (antibody)
chain 1: not shown
chain 2: not shown
chain 3: B1 chain 3
In turn, B2 displayed a dissociation constant (Kd) in [1] of 470 nM. This Kd and that of the molecule before are within 1.5-fold of each other.

B3: GpH7-A44/GpH7-B80/GpL16-k0 (antibody)
chain 1: B1 chain 1
chain 2: not shown
chain 3: B1 chain 3
As for B3, the Kd in [1] came out at 230 nM. This Kd is about 2-fold lower than that of the molecule before.

B4: H240-Kn179/H240-Hl089/L73-k0 (antibody)
chain 1: QDQLVQSGAEVKKPGASVKVSCKASGFNIKDTYIQWVRQAPGQGLEWMGRIDPLRKQTKYREKFEGRVTITADTSTNTAYMELSSLRSEDTAVYYCVRSGREFDYWGQGTLVTVSSASTKGPSVFPLAPSSKSTSGGTAALGCLVKDYFPEPVTVSWNSGALTSGVHTFPAVLQSSGLYSLSSVVTVPSSSLGTQTYICNVNHKPSNTKVDKKVEPKSCDKTHTCPPCPAPEYYWGPMVFLFPPKPKDTLMISRTPEVTCVVVDVSDEDPEVKFNWYVDGVEVHNAKTKPREKQYNATYRVVSVLTVLHQDWLNGKEYKCKVSNKDLPAPIEKTISKAKGQPREPQVCTLPPSRDELTKNQVSLWCLVKGFYPSDIAVEWESNGQPENNYKTTPPVLDSDGSFFLYSKLTVDKSRWQQGNVFSCSVMHEALHNHYTQKSLSLSP
chain 2: QDQLVQSGAEVKKPGASVKVSCKASGFNIKDTYIQWVRQAPGQGLEWMGRIDPLRKQTKYREKFEGRVTITADTSTNTAYMELSSLRSEDTAVYYCVRSGREFDYWGQGTLVTVSSASTKGPSVFPLAPSSKSTSGGTAALGCLVKDYFPEPVTVSWNSGALTSGVHTFPAVLQSSGLYSLSSVVTVPSSSLGTQTYICNVNHKPSNTKVDKKVEPKSCDKTHTCPPCPAPELLTGPSVFLFPPKPKDTLMISRTPEVTCVVVDVSHEEPEVKFNWYVDGVEVHNAKTKPREEQYNSTYRVVSVLTVLHQDWLNGKEYKCKVSNDALPKPIEETISKAKGQPREPQVYTLPPSRCELTKNQVSLSCAVKGFYPSDIAVEWESNGQPENNYKTTPPVLDSDGSFFLVSKLTVDKSRWQQGNVFSCSVMHEALHNHYTQKSLSLSP
chain 3: DIQMTQSPSSLSASVGDRVTITCRASQDIHKYIAWYQQKPGQAPRLLIQYTSTLQPGVPSRFSGSGSGTDYTFTISSLQPEDIATYYCLQYEQLRTFGGGTKVEIKRTVAAPSVFIFPPSDEQLKSGTASVVCLLNNFYPREAKVQWKVDNALQSGNSQESVTEQDSKDSTYSLSSTLTLSKADYEKHKVYACEVTHQGLSSPVTKSFNRGEC
Consider B4, for which the Kd was found to be 47 nM in test [2]; 400 nM in test [3]; 39 nM in test [4]; 18 nM in [5]; 0.46 nM in [6]; 18 nM in test [7].

B5: H240-Kn193/H240-Hl204/L73-k0 (antibody)
chain 1: B4 chain 1 with Y234N, K293R
chain 2: B4 chain 2 with I331E
chain 3: B4 chain 3
Take B5: the Kd was 35 nM in test [2]; 290 nM in test [3]; 11 nM in [4]; 1.8 nM in [5]; under 0.024 nM in test [6]; 16 nM in test [7].

B6: H240-Kn180/H240-Hl089/L73-k0 (antibody)
chain 1: B4 chain 1 with K293R
chain 2: B4 chain 2
chain 3: B4 chain 3
Turning to B6, the Kd is 38 nM in [2]; 380 nM in test [3]; 24 nM in test [4]; 14 nM in test [5]; 0.27 nM in test [6]; 16 nM in test [7].

B7: H240-Kn032/H240-Hl032/L73-k0 (antibody)
chain 1: B4 chain 1 with Y233L, Y234L, W235G, M238D, D267H, K293E, A297S, D326A, A329L, I331E
chain 2: B4 chain 2 with T235G, S238D, E269D, D325K, K329L, I331E, E333K
chain 3: B4 chain 3
On to B7, for which the dissociation constant (Kd) in test [8] is 9.1 nM; in test [9] it was 620 nM; in [10] it was 690 nM; in [11], 340 nM; in test [12], 3.1 nM; in test [13] it was 0.073 nM. The molecule also displayed a Kd in test [14] of 630 nM.

B8: H240-Kn033/H240-Hl033/L73-k0 (antibody)
chain 1: not shown
chain 2: not shown
chain 3: B4 chain 3
For B8, the Kd amounted to 2600 nM in test [8]; 48 nM in test [15]; 4100 nM in test [9]; 930 nM in test [10]; 0.095 nM in [16]; 1000 nM in test [11]. Also, the Kd in [17] came to 740 nM; in test [12], 390 nM; in [13], 0.25 nM; in test [18] it was 3300 nM; in test [19] it was 290 nM; in [20] it was 520 nM. In addition, binding in test [14] was characterised by a dissociation constant (Kd) of 4200 nM.

B9: H240-Kn192/H240-Hl204/L73-k0 (antibody)
chain 1: B4 chain 1 with Y234N
chain 2: B4 chain 2 with I331E
chain 3: B4 chain 3
Regarding B9, the Kd in [2] is 42 nM; in test [3] it was 290 nM; in test [4] it was 12 nM; in test [5] it was 2.2 nM; in [6], under 0.019 nM; in test [7] it was 19 nM.
